The DeepSol protein solubility set

test: soluble on expression in E. coli; label from the status in PepcDB or PDB records

Sequence | soluble on expression in E. coli
MGSDKIHHHHHHMINCIIVEDAPLAVDKLKNFISKVPLLDLAGTFDNGLDAFDFLQSNTIDLLFLDIQMEQFTGLQLLQALHTRPHIIIVSAYGEYAVQGFEYDVTDYLLKPYSFERFLKAVNKVQTEMASNPPAQPLPKDYIFLKTEYRMVRINLCDILYIEGKGAYLHVITDTTRIMTLLSFKEIESLLPAKQFIRIHKSYLIAINKIDNIERNVVKIANMRIPIGKSYLKDFYLRLQ | not soluble
MSLTERKQRFLRRILTYYTLKRRESKWIIDYWLRNDSKLEQVHFVQNAMFAPKAMIITTYGFDADPFLFKKGEVKTTDPEKAYHDIRLTDEPLYIELNFQGMMMDDEYLSLLEENPFRPEVAVEPKLADAAMNFIAATVNRQEEERLVRLIDEALDARDKHRFQSLSDELRIIRSQLEGHHHHHH | soluble
NGQIMYRIVTVQDSTERLESQSALRESEERFRSVVESAPDAIFIQTGGRFAYLNHSAIALFGASKAEEILGRRVADQIHPDYRDLVAERIRLLNERQ | not soluble
MSLGDERPDVLLTGLLFYDLVLTGLGKPPTPGEEIWTEGMGVSPGGIANLAVAASRFGLRTSLATVFGDDHYGAYCRGVLAGQEGIDLSLSRTADGWHTPVTVSLAYGHDRALVTHGQDPPYSQDALMGDPPEARTALVHIEAEPHAWLAKAAANGTRIYADVGWDPTQQWSRDLLDQLSLCHAFLPNEAEAMAYTRTDSAMAALGTLTDLVPVAVVTRGGDGAVAVDQTTGEYAEVPALDIDVLDPTGAGDVFGASFVAASLGGWPLAERLRFAVLAAGLSVQRHGGALAAPGWYGVHRWWHSLEDPGLRRAYGFLADRIPADPGPPVRHAPVTPPDATRREGHHHHHH | soluble
MGSDKIHHHHHHMHDKFLNYFDETARQGSIRKAAAVLNMSSSSLNRKIISTENRLGIRLFDRHADGVTLTEAGVVVLEHCRNTLFDYQRIVNMVEDIRDMRTGHIDILTLDSIALSVLPEVLDDFQDAYPQVAYTIQTDEPHAVMQAVANGTADIGLSFSNDLHPDVRCQAEKSTPIGAIMAHDHPLAERDLIEVGDLAPYQLIRSYDSQTHRSFVNEAVSSLGVQLSTQMVTNSLPLAKTMILNGRGVGIYSKIGFIEEIEDGRLRYVAINSPLLRELRIGVLISARTGLLPVQHLLARALSKSLRSLRLDS | not soluble
ADGQQGAPLNSPNTYDVTTWRIKAHPEVTAQSDIGAVINDIIADIKQRQTSPDARPGAAIIIPPGDYDLHTQVVVDVSYLTIAGFGHGFFSRSILDNSNPTGWQNLQPGASHIRVLTSPSAPQAFLVKRAGDPRLSGIVFRDFCLDGVGFTPGKNSYHNGKTGIEVASDNDSFHITGMGFVYLEHALIVRGADALRVNDNMIAECGNCVELTGAGQATIVSGNHMGAGPDGVTLLAENHEGLLVTGNNLFPRGRSLIEFTGCNRCSVTSNRLQGFYPGMLRLLNGCKENLITANHIRRTNEGYPPFIGRGNGLDDLYGVVHIAGDNNLISDNLFAYNVPPANIAPAGAQPTQILIAGGDANVVALNHVVSDVASQHVVLDASTTHSKVLDSGTASQITSYSSDTAIRPTP | soluble
EKFRWFISSEGFLVIGGKDATTNEIVVRKYLEENDLYCHADIWGAPHVVIKDGQKAGEKTIFEACQFAVSMSRAWSEGLYSADAYWVYPNQVKKQAPSGEFLPK | not soluble
MSNSDEQILQFYVEHFEKALEKTQNVLLEFAESPLNHLKPTKRATDAQAFQFNSTCPGVENLNKLEREALFQQSSFVNLWLNLAYTCSKSSLSFWDSRDQGSEGGKLEVFMPRLHDSLTTEFHRIHLDPQEFATICAITTWKIHQWGTVEANTVAGQHYLAVIKELNNHHKKTTTMRDFERALRITEIISLLVPIGRMLQEVKTLYETLGIKDDGRE | not soluble
ASNIYRLQQAAEAAVKTGRKIAVFGRSMEKAIVNGIELGYIKVPKGTFIEPSELKNLHASEVLIMCTGSQGESMAALARIANGTHRQVTLQPGDTVIFSSSPIPGNTTSVNKLINTIQEAGVDVIHGKVNNIHTSGHGGQQEQKLMLSLIKPKYFMPVHGEYRMQKVHAGLAMDIGIPKENIFIMENGDVLALTSDSARIAGHFNAQDIYVDGNGIGDIGAAVLRDRRDLSEDGVVLAVATVDFNTQMILAGPDILSRGFIYMRESGDLIRESQRVLFNAIRIALKNKDASIQSVNGAIVNALRPFLYEKTEREPIIIPMVL | not soluble
MFGGGSSGPVDTTLYTTLNVRPDASQADIKKSYFKLAKEYHPDKNPDHGDKFKEISFAYEVLSSPEKRRLYDARGLEGVQGGGAGGGGGGFPGGLFSHFFGGAGGDDDDDDDDMGGHPFGGLFGGMGGMGRGGPRRRKFQDTVHPLNVTLEELYVGKTSKLKLSKKALCKTCEGSGGKKGEKYKCDACRGRGVKTIVQQIGPGMLQQMQVHCDACKGSGGKVPAGDKCKGCHGEKYENVSKILEVHVLPGMKHNDKITFKGDGDQSDPDGEPGDVVIVIQQKDHDIFKRDGDDLHMTKKLSLNEALCGYNFLIKHLDGHPLVLSSKQGDVIKPGVIRGVLGKGMPNKKYPELKGNLFVEFEVEFPKEHFLDDEKAYAVLKSCFPTSKVVNVTPAAAEVSLMEYDEKKYSRGRGGDAYNEDSDEEQHGGHHGQGVRCQHQ | not soluble
GPGSMQERESLLKEYKGLLANLEEAFDLKRSNEADQEVDDLIDETKAELRTVVASLNASEVIEVTKDVTKVVDADGNTVILYSKVAPYEVHFDNAMWYSCVITDVVQPETALERVRYKAWILGYNVEEETYSEQLRVWQPQAAEGETTLRSGVACHAVNPRSGRFESAKVVRLTLSDTVILTFSDVVEMTKEVGETDGAGAAGELATGKRDPSGGDTSAVTEEVPLSHVRVGRFYQQLRKRSTLTSEERARRRAQNVERKRVRRETKRQQDANVASQNANDWQRLVEDMGLATGCAKKRR | soluble
KRYIPSVNDFVIGVIIGTFSDSYKVSLQNFSSSVSLSYMAFPNASKKNRPTLQVGDLVYARVCTAEKELEAEIECFDSTTGRDAGFGILEDGMIIDVNLNFARQLLFNNDFPLLKVLAAHTKFEVAIGLNGKIWVKCEELSNTLACYRTIMECCQKNDTAAFKDIAKRQFKEILT | soluble
MNLPGAAEPQGGNEIPEYTGVAWHYGQPLVEQRYFERSGGFVDRSHRGVLCISGEDAAVFLNNLVSQKLIDLPHPWAGEALDLDIQGHVVHHMEIIATDEVFYVHVPAAQLESLHTFFTRMIFWSKVTIEVIDAAVISVISAQHLDALVDVPLPEALAVSPVIDFSLPRRDILVPRASLMAVAASLQEHGFQPAGMMAYTAARVRSVQPVMSLDMDATTIPHEAASLIGRGDHIGAVHLNKGCYRGQETVGRVENLGRSPRVLVMVLIDGSAPEQPHPAAPLTAGGRTVGFLGTVVDDFELGPIGLAVVKRSALKSATLQAGDDVALSIDPDSLPHDDGEKAGRVAINKLRGL | not soluble
MSLKPSVVLNGDAITLGDIWENIGDKAGTPLANAPAPGKRITLETRWLMAVAQSYGIDWRPASPFERSVVERAGQSVDIRAIETELKEALSMEGAPAGASIEISNRQQLHIVIPATASPTVAVKDLAYDPRMNRFQAVVEAPAGAPNSVRFKVMGSVYASARIPVLAHAMGRGDVIREDDIQWVDVREEVVRRDIISNARMLVGQEPRYQLRAGVPVRTNEVQKPVVVAKNSSVTIMLRSKFMTLTAQGRAIEDGSVGDVIRVTNVQSKQTVDAKIEGPGQVSVMPGGLRTLANEGHHHHHH | not soluble
SIPYQEWHSQLQSLYDSQIFHNWALCQDVHLNDEKDGLLLRLIPTRQLQKNTERIENKLLNHIELYLTYSKVYNEPLLLLRIWEEKSIDGIPMTKLMLPTDIESLLDVQGKFQLGLDTIINLEGSVWYSFHPCDTSCIVGDQAEFMSTYLRRWVSIFIFSWLGYEDS | soluble
MLTIAHRLQRESISSGRHSSRISAVFSSPIRASSESRSQHAASSSSSIVSRPESVDEDEEEDGVWPSVTSGGVLVGCACSNSSLTRNESIVVSEGSQALYIASAATAMNGDSVRRRGGDAPDDDEAAGAAPVPAEECNLDALFERFFGDGGADAIRFEPMLPRVYELTLPSIDSRLNFINVGRRHAAFLRHVYGGCDRCEHAAVLNEKMKLFTAVITKLLDVNGILERRETTD | not soluble
MCPKCGTECDKLFDSVCRDCFFETFKLIDLPLVLHVKICSSCGAYFHRSRWENIGNLEEVVLKAVENALFIHDEAGDVELYLEPKEITPYIYMVRAEVDAIVRGEPVHAEAATEVRVQRIACDMCSRESGGYFEAIIQIRAAGRFPTEEEKRRCSAIAREAMESMKKKGDRLAFISDYQEQKEGIDLYMGSMNASRQVCRMIISELGGSFAESPTLVGMKDGKNLYRITFAMRLPLEHHHHHH | not soluble
MSLERIEPGPDTIRVLLTTDNHVGAFENDPIRGDDAWKTFDEITTIAKDKDVDMIIQGGDLFHINKPTKKSMYHVMKSLRSNCMGDRPCELELLSDPAQSLNNGFDEINYEDPNLNISIPVFAISGNHDDATGESLLLALDVLAVTGLINNFGKVKNTEAITVSPILLQKGQTKLALYGMSNVRDERLHRLFRDGGVKFQRPNIQTEDWFNLFVIHQNHAAHTYTSSIPESFLPNFLDFILWGHEHECIPYPVHNPETTFDVLQAGSSVATSLAEGEVADKKIFILNIKGKDYSIEPVELKTVRPFVLREIILLKTDLIPGAASKADVIAYLTDEVEKSIERANKQFSEGHHHHHH | soluble
ASDDELFSMLDQRFGGGEDLLMSGDNGMTEEKLRRYLKRTVTELDSVTARLREVEHRAGE | soluble
MAHHHHHHMYSTTNDKSENEDLNDVIEININNIANKLANILYITNVGMKENCELKNNLHFSKFLNDMRSYCVNLIQSINNLNSNFYNLTCLPVHSIPRNPYTNILDINVITNNISVDDNADKIKEKQTLLQSFHNKYDKNKTTFHQSIKHIETFNDQLFSALNNLDHIKMSIKYQDQESSTYGNVVSERLKNKQKDHEHLELYIARVHYGLF | not soluble
MRERGVAFFSGGKDGLYALYLAEKEGIEVPYLLTLKTSIGLSPHWENLSSLKALAENMGKKLLTFDMKYGSKALAEFISSLDVDYIIAGDVFLEDHLKWINLLAEKAGIKSFEPLWGKNTLELAKEMLNAGFKYSIIAVDKNKLEKTWLGYTFSSTRDIEIFIYENPTIDPLGEGGEFHTITLSSPLFKDEFTLEKISVEESERYWWMRFRVVGNDIKNVRVKGHNSRKDGLEHHHHHH | soluble
MNQWRVIHNKSYEGAMNMAIDEAIFTAYKKGHNKPTLRFYTWEPACLSIGYFQKLEDEIDLDKCRCMNIDYTRRITGGRAVLHDNELTYSIIIGEDNPLIDKSINLSYRYISEGLVKGLNLSGIETDNLNRGERISRENLSAACFNAHASYEVTINNKKVIGSAQSRKDGVLLQHGSIILDFDVEKLFKLIKTKTPELKERAMKFTAKKASGIENEIGRKIDIDILQKNIVKGLAEQFNVEFVEGDLTDYEKQLVKELYEKYKNEEYN | not soluble
MGSDKIHHHHHHMLNFSLTPNAKILSKDADSYPYMYRNYPFLRPWVDSLKQVNALKDTFIINPQGIQLHAFYITAPAPTSKTAVIVHGYTDNAIRMFMIGYLYNRDLGYNILLPDLQHQGESEGRAIQMGWKDRIDVLQWMNIANEIFGDSTQMVVHGISMGGATTMMVSGEKQQPYVKCFVEDCGYTSVWDEFSHELKSSFHLPAFPLMYTTSWLCEKKYGWNFKEASSLKQVEKCELPMLFIHGDKDTYVPTWMVYPLYEAKPEPKELWIVPGAAHALSYKENKQEYTDKVRDFVGRYIH | not soluble
MSLSQCQTLLSQINRRIESYENIPVFSFAQKLPLFDSNSTKLKLNSQTNEMMMELLSLVEQNKGKKILIVGHSDNTGSSSMNMTLSEQRALALRDWLIKRSDITVDNFITKGMGASEPVATNHTEAGREQNRRVEVLILPTQDRTRMTEPKPLEGHHHHHH | soluble
